Test results: US20030096275

Biological target: T1, ArsR (Escherichia coli) (UniProt P15905)
T1 sequence: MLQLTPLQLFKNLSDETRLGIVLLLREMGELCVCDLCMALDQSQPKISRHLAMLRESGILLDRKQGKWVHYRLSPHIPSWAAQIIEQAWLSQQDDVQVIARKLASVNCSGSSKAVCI
Assay: SPR
Details: ±10 nM, HBS-EP pH 7.4, 25 C

[1] = one value stated for all sequences although affinities said to differ, binding inhibited about 55% by 100 uM phenylarsine oxide …
[2] = one value stated for all sequences

Sequence	Kd [1] [nM]	Kd [2] [nM]
CTGCACTTACACATTCGTTAAGTCATATATGTTTTTGACTTA / TAAGTCAAAAACATATATGACTTAACGAATGTGTAAGTGC [CHROML1]	500	
TTAATCATATGCGTTTTTGGTTATGTGTTG / CAACACATAACCAAAAACGCATATGATT [PLASL1]	500	
TTAAGTCATATATGTTTTTGACTTA (double strand) [CHROMS1]		500
TTAATCATATGCGTTTTTGGTTA / TAACCAAAAACGCATATGATT [PLASS1]		500
